Laboratory results reported in patent US20060252116A1, “Icam-4 binding sites” (priority 2002, published 2006).

Each molecule was assayed on HT1080 cells (αv integrin) (assay: Adhesion of HT1080 cells to mutant human ICAM-4Fc). Settings: FIG. 4; single residue mutants of human ICAM-4Fc, titrated coating concentration.
Format: cell-based
Procedure: Cell adhesion assays were performed as described in Spring et al. 2001 (supra). Immulon4 96 well plates (Dynex Technologies, Billingshurst, United Kingdom) were coated with 1 μg/well goat-antihuman-Fc (Sigma, Poole, United Kingdom) for 24 hours at 4° C., washed three times with PBS and coated with an Fc fusion ICAM-4 protein for 18 hours at 4° C. before blocking with 0.4% BSA PBS for 2 hours at 22° C. Cells were labelled with 10 μg/ml 2′,7′-bis-(2-carboxyethyl)-5-(and-6-) carboxyfluorescein acetoxymethyl ester in assay buffer (IMEM, 2 mM EGTA, 10 μg/ml human ivIgG) for 15 minutes at 37° C. HT1080 cells were activated with 80 μM phorbol myristate acetate prior to both cells being washed with assay buffer containing 2 mM Mn^2+. Cells, at 5×10^4 cells per well, were added to the ICAM-4Fc-coated plates for 30 minutes at 37° C., prior to being given repeated washes in assay buffer and read on a fluorescence microplate reader (excitation 485 nm, emission 530 nm). The percentage of bound cells was calculated after each wash. Peptide inhibition was performed by incubating the cells with 500 μM peptide at 0° C. for 15 minutes ahead of their addition, still in the presence of 500 μM peptide to the ICAM-4Fc coated plates. In peptide inhibition studies the appropriate ICAM-4Fc coating concentration for each cell line was pre-determined by titration of ICAM-4Fc and the lowest concentration at which maximal binding was achieved was used to coat the plates
Point mutations were inserted into ICAM-4 in pIg vector (see Simmons D L, 1993, Cloning cell surface molecules by transient expression in mammalian cells, In: Hartley D A, ed. Cellular interactions in development. New York, N.Y.:IRL press, 93-127) by PCR amplification over two stages. Oligonucleotides (see “Mutagenesis primers” below) containing mismatched bases, together with 5′-[…] (SEQ ID NO: 14) and 3′-[…] (SEQ ID NO: 15) primers were used to generate two overlapping products. Following gel purification the two overlapping PCR products were annealed together before final amplification using the 5′ and 3′ primers. The final PCR product was restricted and ligated into pIg vector. All mutant clones were verified by sequence analysis. Mutant ICAM-4Fc proteins were expressed in COS-7 cells as described in Simmons D L (1993, supra), and purified from culture supernatant on protein A-Sepharose.

Molecule	adhesion of HT1080 cells to mutant ICAM-4Fc compared with wild-type
F18A mutant: human ICAM-4Fc fusion protein with point mutation F18A (protein, left off: a dimerising Fc or GST, human ICAM-4Fc fusion protein with point mutation F18A) AQSPKGSPLAPSGTSVPAWVRMSPEFVAVQPGKSVQLNCSNSCPQPQNSSLRTPLRQGKTLRGPGWVSYQLLDVRAWSSLAHCLVTCAGKTRWATSRITAYKPPHSVILEPPVLKGRKYTLRCHVTQVFPVGYLVVTLRHGSRVIYSESLERFTGLDLANVTLTYEFAAGPRDFWQPVICHARLNLDGLVVRNSSAPITLMLAWSPAPTA	decrease in binding
T162V mutant: human ICAM-4Fc fusion protein with point mutation T162V (protein, left off: a dimerising Fc or GST, human ICAM-4Fc fusion protein with point mutation T162V) AQSPKGSPLAPSGTSVPFWVRMSPEFVAVQPGKSVQLNCSNSCPQPQNSSLRTPLRQGKTLRGPGWVSYQLLDVRAWSSLAHCLVTCAGKTRWATSRITAYKPPHSVILEPPVLKGRKYTLRCHVTQVFPVGYLVVTLRHGSRVIYSESLERFTGLDLANVVLTYEFAAGPRDFWQPVICHARLNLDGLVVRNSSAPITLMLAWSPAPTA	elevated level of adhesion
R92E mutant: human ICAM-4Fc fusion protein with point mutation R92E (protein, left off: a dimerising Fc or GST, human ICAM-4Fc fusion protein with point mutation R92E) AQSPKGSPLAPSGTSVPFWVRMSPEFVAVQPGKSVQLNCSNSCPQPQNSSLRTPLRQGKTLRGPGWVSYQLLDVRAWSSLAHCLVTCAGKTEWATSRITAYKPPHSVILEPPVLKGRKYTLRCHVTQVFPVGYLVVTLRHGSRVIYSESLERFTGLDLANVTLTYEFAAGPRDFWQPVICHARLNLDGLVVRNSSAPITLMLAWSPAPTA	decrease in binding
W19A mutant: human ICAM-4Fc fusion protein with point mutation W19A (protein, left off: a dimerising Fc or GST, human ICAM-4Fc fusion protein with point mutation W19A) AQSPKGSPLAPSGTSVPFAVRMSPEFVAVQPGKSVQLNCSNSCPQPQNSSLRTPLRQGKTLRGPGWVSYQLLDVRAWSSLAHCLVTCAGKTRWATSRITAYKPPHSVILEPPVLKGRKYTLRCHVTQVFPVGYLVVTLRHGSRVIYSESLERFTGLDLANVTLTYEFAAGPRDFWQPVICHARLNLDGLVVRNSSAPITLMLAWSPAPTA	decrease in binding
T95V mutant: human ICAM-4Fc fusion protein with point mutation T95V (protein, left off: a dimerising Fc or GST, human ICAM-4Fc fusion protein with point mutation T95V) AQSPKGSPLAPSGTSVPFWVRMSPEFVAVQPGKSVQLNCSNSCPQPQNSSLRTPLRQGKTLRGPGWVSYQLLDVRAWSSLAHCLVTCAGKTRWAVSRITAYKPPHSVILEPPVLKGRKYTLRCHVTQVFPVGYLVVTLRHGSRVIYSESLERFTGLDLANVTLTYEFAAGPRDFWQPVICHARLNLDGLVVRNSSAPITLMLAWSPAPTA	decrease in binding
A94L mutant: human ICAM-4Fc fusion protein with point mutation A94L (protein, left off: a dimerising Fc or GST, human ICAM-4Fc fusion protein with point mutation A94L) AQSPKGSPLAPSGTSVPFWVRMSPEFVAVQPGKSVQLNCSNSCPQPQNSSLRTPLRQGKTLRGPGWVSYQLLDVRAWSSLAHCLVTCAGKTRWLTSRITAYKPPHSVILEPPVLKGRKYTLRCHVTQVFPVGYLVVTLRHGSRVIYSESLERFTGLDLANVTLTYEFAAGPRDFWQPVICHARLNLDGLVVRNSSAPITLMLAWSPAPTA	decrease in binding
V20T mutant: human ICAM-4Fc fusion protein with point mutation V20T (protein, left off: a dimerising Fc or GST, human ICAM-4Fc fusion protein with point mutation V20T) AQSPKGSPLAPSGTSVPFWTRMSPEFVAVQPGKSVQLNCSNSCPQPQNSSLRTPLRQGKTLRGPGWVSYQLLDVRAWSSLAHCLVTCAGKTRWATSRITAYKPPHSVILEPPVLKGRKYTLRCHVTQVFPVGYLVVTLRHGSRVIYSESLERFTGLDLANVTLTYEFAAGPRDFWQPVICHARLNLDGLVVRNSSAPITLMLAWSPAPTA	decrease in binding
K118E mutant: human ICAM-4Fc fusion protein with point mutation K118E (protein, left off: a dimerising Fc or GST, human ICAM-4Fc fusion protein with point mutation K118E) AQSPKGSPLAPSGTSVPFWVRMSPEFVAVQPGKSVQLNCSNSCPQPQNSSLRTPLRQGKTLRGPGWVSYQLLDVRAWSSLAHCLVTCAGKTRWATSRITAYKPPHSVILEPPVLKGREYTLRCHVTQVFPVGYLVVTLRHGSRVIYSESLERFTGLDLANVTLTYEFAAGPRDFWQPVICHARLNLDGLVVRNSSAPITLMLAWSPAPTA	decrease the level of adhesion
W66A mutant: human ICAM-4Fc fusion protein with point mutation W66A (protein, left off: a dimerising Fc or GST, human ICAM-4Fc fusion protein with point mutation W66A) AQSPKGSPLAPSGTSVPFWVRMSPEFVAVQPGKSVQLNCSNSCPQPQNSSLRTPLRQGKTLRGPGAVSYQLLDVRAWSSLAHCLVTCAGKTRWATSRITAYKPPHSVILEPPVLKGRKYTLRCHVTQVFPVGYLVVTLRHGSRVIYSESLERFTGLDLANVTLTYEFAAGPRDFWQPVICHARLNLDGLVVRNSSAPITLMLAWSPAPTA	decrease the level of adhesion
N160A mutant: human ICAM-4Fc fusion protein with point mutation N160A (protein, left off: a dimerising Fc or GST, human ICAM-4Fc fusion protein with point mutation N160A) AQSPKGSPLAPSGTSVPFWVRMSPEFVAVQPGKSVQLNCSNSCPQPQNSSLRTPLRQGKTLRGPGWVSYQLLDVRAWSSLAHCLVTCAGKTRWATSRITAYKPPHSVILEPPVLKGRKYTLRCHVTQVFPVGYLVVTLRHGSRVIYSESLERFTGLDLAAVTLTYEFAAGPRDFWQPVICHARLNLDGLVVRNSSAPITLMLAWSPAPTA	elevated level of adhesion
S96A mutant: human ICAM-4Fc fusion protein with point mutation S96A (protein, left off: a dimerising Fc or GST, human ICAM-4Fc fusion protein with point mutation S96A) AQSPKGSPLAPSGTSVPFWVRMSPEFVAVQPGKSVQLNCSNSCPQPQNSSLRTPLRQGKTLRGPGWVSYQLLDVRAWSSLAHCLVTCAGKTRWATARITAYKPPHSVILEPPVLKGRKYTLRCHVTQVFPVGYLVVTLRHGSRVIYSESLERFTGLDLANVTLTYEFAAGPRDFWQPVICHARLNLDGLVVRNSSAPITLMLAWSPAPTA	decrease in binding
R97E mutant: human ICAM-4Fc fusion protein with point mutation R97E (protein, left off: a dimerising Fc or GST, human ICAM-4Fc fusion protein with point mutation R97E) AQSPKGSPLAPSGTSVPFWVRMSPEFVAVQPGKSVQLNCSNSCPQPQNSSLRTPLRQGKTLRGPGWVSYQLLDVRAWSSLAHCLVTCAGKTRWATSEITAYKPPHSVILEPPVLKGRKYTLRCHVTQVFPVGYLVVTLRHGSRVIYSESLERFTGLDLANVTLTYEFAAGPRDFWQPVICHARLNLDGLVVRNSSAPITLMLAWSPAPTA	decrease in binding
